Data taken from the supplement of paper PMC10724198.
± gives the standard deviation of the averaged measurements.

System: Saccharomyces cerevisiae
Assay: protein stability index of tFT-peptide fusion (C-terminal peptide) (PSI (0-1 scale)); higher = more stable (slower turnover)
Conditions: genetic background: cdc34-1; temperature: 37 C
Description: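 MPS profiling in S. cerevisiae of the tFT-X12 degron library: putative degron peptides plus stable controls, 12 aa, fused to the C-terminus of a sfGFP-mCherry timer. Cells are FACS-sorted into 8 mCherry/sfGFP bins and deep-sequenced. PSI runs from 0 (unstable) to 1 (stable). Backgrounds are wild type, das1Δ and doa10Δ at 30 °C, and wild type, das1Δ, cdc34-1 and cdc53-1 at 37 °C; 2-3 technical replicates each.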
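Also: PSI is a weighted mean of sequencing reads over stability bins, variants kept only with over 10 reads, mCherry proximal and sfGFP distal, peptide attached via GGGS linker.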

| Sequence | protein stability index |
| --- | --- |
| SWLLLVFPLSVC | 0.0423 ± 0.012 |
| TCFVKLLPFLVL | 0.549 ± 0.052 |
| TCRASLRRIVVA | 0.514 ± 0.024 |
| TFRVLREIILTA | 0.2 ± 0.021 |
| TPPFFDIFVVLL | 0.576 ± 0.052 |
| TPPIRCRLVRFL | 0.656 ± 0.059 |
| TSARPFLYSFRP | 0.69 ± 0.036 |
| TVLPCVLLFLRG | 0.61 ± 0.026 |
| VAVFFGCCVKVG | 0.149 ± 0.027 |
| VAVGFVLGLCVV | 0.392 ± 0.042 |
| VCFLLLLPALLI | 0.466 ± 0.031 |
| VCNQVPGVIWFC | 0.683 ± 0.036 |
| VCRFLVSVFSCV | 0.546 ± 0.042 |
| VCRVAAWLGWFV | 0.522 ± 0.016 |
| VEFSLYVVFFLV | 0.2152 ± 0.00048 |
| VFCPRACWEFVG | 0.567 ± 0.041 |
| VFCSRSLISVVS | 0.193 ± 0.03 |
| VFFCLCLCLFFV | 0.432 ± 0.023 |
| VFFGCIWSIVYN | 0.247 ± 0.022 |
| VFGARLFLIRLV | 0.405 ± 0.059 |
| VFLNVLDNNRLC | 0.65 ± 0.078 |
| VFLRFVLSFFLL | 0.542 ± 0.03 |
| VFLSLVFFFIIT | 0.254 ± 0.011 |
| VFRVLLSLFSTL | 0.657 ± 0.021 |
| VFRYWCGIFCLT | 0.688 ± 0.052 |
| VFSAGFSTISLF | 0.745 ± 0.037 |

| Sequence | protein stability index |
| --- | --- |
| VFSWLAFGFFCS | 0.647 ± 0.0029 |
| VGELYRLRKLHV | 0.69 ± 0.026 |
| VGHVFLGVVWLV | 0.44 ± 0.043 |
| VGLRLSVIFVVI | 0.265 ± 0.019 |
| VGVIGWGVLGVG | 0.475 ± 0.04 |
| VGVVGVRVLVVV | 0.0407 ± 0.0012 |
| VIGSFVRVFGIM | 0.698 ± 0.024 |
| VILMFELFGVRI | 0.324 ± 0.04 |
| VLCHLVLYVGDK | 0.454 ± 0.013 |
| VLDLLRHGFLWQ | 0.686 ± 0.051 |
| VLFFVLGVLVCL | 0.319 ± 0.019 |
| VLFIKKTLMRIQ | 0.558 ± 0.008 |
| VLFVLFASWFPR | 0.453 ± 0.023 |
| VLFVVLVASGLG | 0.215 ± 0.015 |
| VLPQSVWILVRV | 0.0621 ± 0.016 |
| VLSFWAFLFLLF | 0.428 ± 0.012 |
| VLSWRAWGESGV | 0.387 ± 0.02 |
| VMFWRGVWLSFC | 0.313 ± 0.036 |
| VNTRIVVRMRHL | 0.638 ± 0.056 |
| VNWGFLVLLFQL | 0.446 ± 0.017 |
| VPLHPPPTVPYI | 0.674 ± 0.063 |
| VPLVQRARLRLF | 0.639 ± 0.059 |
| VPRLFSVIVVPV | 0.517 ± 0.04 |
| VRFRLLNVLASA | 0.528 ± 0.0073 |
| VRGSFRRCLSIA | 0.596 ± 0.011 |
| VRRSVGGWSKVG | 0.638 ± 0.011 |

| Sequence | protein stability index |
| --- | --- |
| VRSTFVLGRWFA | 0.57 ± 0.0089 |
| VSFHFLLLVPCC | 0.0285 ± 0.0095 |
| VSFHLGVIFALS | 0.547 ± 0.018 |
| VSFLLLSYLCSF | 0.341 ± 0.0084 |
| VSWDMLYFWFIQ | 0.664 ± 0.089 |
| VSYAVIVLVFKG | 0.211 ± 0.056 |
| VTVWLISRVTGL | 0.579 ± 0.034 |
| VVCFGCLAFFLG | 0.579 ± 0.0076 |
| VVFILLFFVFCR | 0.253 ± 0.027 |
| VVGITIMVFIIT | 0.138 ± 0.0028 |
| VVIGAVLFVVVR | 0.0736 ± 0.0063 |
| VVIWGMLLCGLG | 0.447 ± 0.0096 |
| VVTICVASWSGL | 0.521 ± 0.038 |
| VVTVCIIRLAWG | 0.219 ± 0.0046 |
| VVVLRRVIEVMQ | 0.327 ± 0.015 |
| VVVRFCLGICFC | 0.36066 ± 0.00017 |
| VWAWAVVVFVVL | 0.196 ± 0.054 |
| VWEKGVCGRMVG | 0.676 ± 0.015 |
| VWSFFTSFIRYI | 0.5614 ± 0.0036 |
| VWVISLCIGGGG | 0.297 ± 0.0044 |
| VWVLLCKYVILL | 0.228 ± 0.034 |
| VWWGVGVWLLVG | 0.104 ± 0.025 |
| VYVVCFRLGCWV | 0.222 ± 0.0066 |
| WAFRLWWFFCLV | 0.402 ± 0.048 |
| WALPRILFLRLT | 0.118 ± 0.074 |
| WDSCVGRRGIVA | 0.559 ± 0.025 |

Same assay, conditions: genetic background: cdc53-1; temperature: 37 C

| Sequence | protein stability index |
| --- | --- |
| SWLLLVFPLSVC | 0.0634 ± 0.005 |
| TCFVKLLPFLVL | 0.562 ± 0.011 |
| TCRASLRRIVVA | 0.538 ± 0.03 |
| TFRVLREIILTA | 0.228 ± 0.021 |
| TPPFFDIFVVLL | 0.652 ± 0.023 |
| TPPIRCRLVRFL | 0.735 ± 0.017 |
| TSARPFLYSFRP | 0.7386 ± 0.0065 |
| TVLPCVLLFLRG | 0.632 ± 0.012 |
| VAVFFGCCVKVG | 0.18 ± 0.02 |
| VAVGFVLGLCVV | 0.418 ± 0.013 |
| VCFLLLLPALLI | 0.465 ± 0.014 |
| VCNQVPGVIWFC | 0.771 ± 0.017 |
| VCRFLVSVFSCV | 0.548 ± 0.02 |
| VCRVAAWLGWFV | 0.708 ± 0.024 |
| VEFSLYVVFFLV | 0.344 ± 0.024 |
| VFCPRACWEFVG | 0.737 ± 0.027 |
| VFCSRSLISVVS | 0.243 ± 0.072 |
| VFFCLCLCLFFV | 0.463 ± 0.012 |
| VFFGCIWSIVYN | 0.302 ± 0.12 |
| VFGARLFLIRLV | 0.519 ± 0.069 |
| VFLNVLDNNRLC | 0.734 ± 0.011 |
| VFLRFVLSFFLL | 0.629 ± 0.023 |
| VFLSLVFFFIIT | 0.343 ± 0.0077 |
| VFRVLLSLFSTL | 0.7335 ± 0.0063 |
| VFRYWCGIFCLT | 0.701 ± 0.054 |
| VFSAGFSTISLF | 0.792 ± 0.03 |

| Sequence | protein stability index |
| --- | --- |
| VFSWLAFGFFCS | 0.69 ± 0.012 |
| VGELYRLRKLHV | 0.73 ± 0.013 |
| VGHVFLGVVWLV | 0.573 ± 0.014 |
| VGLRLSVIFVVI | 0.2985 ± 0.0021 |
| VGVIGWGVLGVG | 0.548 ± 0.0055 |
| VGVVGVRVLVVV | 0.1 ± 0.018 |
| VIGSFVRVFGIM | 0.751 ± 0.018 |
| VILMFELFGVRI | 0.457 ± 0.019 |
| VLCHLVLYVGDK | 0.569 ± 0.022 |
| VLDLLRHGFLWQ | 0.736 ± 0.0032 |
| VLFFVLGVLVCL | 0.429 ± 0.019 |
| VLFIKKTLMRIQ | 0.685 ± 0.0057 |
| VLFVLFASWFPR | 0.4772 ± 0.002 |
| VLFVVLVASGLG | 0.312 ± 0.007 |
| VLPQSVWILVRV | 0.0737 ± 0.0062 |
| VLSFWAFLFLLF | 0.412 ± 0.026 |
| VLSWRAWGESGV | 0.426 ± 0.015 |
| VMFWRGVWLSFC | 0.361 ± 0.049 |
| VNTRIVVRMRHL | 0.701 ± 0.015 |
| VNWGFLVLLFQL | 0.513 ± 0.025 |
| VPLHPPPTVPYI | 0.728 ± 0.014 |
| VPLVQRARLRLF | 0.715 ± 0.02 |
| VPRLFSVIVVPV | 0.5325 ± 0.0033 |
| VRFRLLNVLASA | 0.518 ± 0.048 |
| VRGSFRRCLSIA | 0.713 ± 0.021 |
| VRRSVGGWSKVG | 0.724 ± 0.023 |

| Sequence | protein stability index |
| --- | --- |
| VRSTFVLGRWFA | 0.711 ± 0.0072 |
| VSFHFLLLVPCC | 0.0251 ± 0.0019 |
| VSFHLGVIFALS | 0.5268 ± 0.0037 |
| VSFLLLSYLCSF | 0.389 ± 0.01 |
| VSWDMLYFWFIQ | 0.693 ± 0.041 |
| VSYAVIVLVFKG | 0.317 ± 0.051 |
| VTVWLISRVTGL | 0.67938 ± 0.00055 |
| VVCFGCLAFFLG | 0.613 ± 0.011 |
| VVFILLFFVFCR | 0.271 ± 0.016 |
| VVGITIMVFIIT | 0.195 ± 0.065 |
| VVIGAVLFVVVR | 0.21 ± 0.015 |
| VVIWGMLLCGLG | 0.502 ± 0.009 |
| VVTICVASWSGL | 0.573 ± 0.011 |
| VVTVCIIRLAWG | 0.315 ± 0.056 |
| VVVLRRVIEVMQ | 0.37 ± 0.025 |
| VVVRFCLGICFC | 0.408 ± 0.013 |
| VWAWAVVVFVVL | 0.343 ± 0.0075 |
| VWEKGVCGRMVG | 0.7689 ± 0.0024 |
| VWSFFTSFIRYI | 0.647 ± 0.018 |
| VWVISLCIGGGG | 0.369 ± 0.015 |
| VWVLLCKYVILL | 0.3521 ± 0.0031 |
| VWWGVGVWLLVG | 0.176 ± 0.02 |
| VYVVCFRLGCWV | 0.321 ± 0.013 |
| WAFRLWWFFCLV | 0.452 ± 0.02 |
| WALPRILFLRLT | 0.157 ± 0.016 |
| WDSCVGRRGIVA | 0.63 ± 0.021 |
